The data set has as its system Escherichia coli TOP10. Nature of the data set: shrunken log2 fold change of peptide-encoding DNA abundance (4.5 h post-induction vs induction); higher = less antimicrobial activity (less host growth inhibition). The note with it: time post-induction: 4.5 h; library: site-saturation at positions 5, 18, 19, 20.
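Note: peptides expressed intracellularly from a pBAD plasmid library in pooled LB shake-flask culture, induced with 0.3% L-arabinose, DNA abundance read by NGS, three biological replicates, DESeq2 with apeglm shrinkage.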

Consider RRIRWRPPRLPRPRPRPECGPRP, for which the “shrunken log2 fold change” value is 1.37.

For RRIRIRPPRLPRPRPRPVDRPRP, the “shrunken log2 fold change” value is 0.0811. The same measure for RRIRRRPPRLPRPRPRPGALPRP: 0.502; for RRIRWRPPRLPRPRPRPPNKPRP: 0.206.

Consider RRIRWRPPRLPRPRPRPHGNPRP, for which the “shrunken log2 fold change” value is 0.132. For RRIRWRPPRLPRPRPRPACHPRP the value was 0.442; for RRIRWRPPRLPRPRPRPIIAPRP, 0.00853.

Consider RRIRPRPPRLPRPRPRPSGSPRP, for which the “shrunken log2 fold change” value came out at 0.0191. The same measure for RRIRYRPPRLPRPRPRPFSNPRP: 0.0549; for RRIRDRPPRLPRPRPRPVSMPRP: -0.0171. The same measure for RRIRQRPPRLPRPRPRPPHDPRP: 1.12. With RRIRARPPRLPRPRPRPMQPPRP, the “shrunken log2 fold change” value was determined as 0.369. The same measure for RRIRLRPPRLPRPRPRPECSPRP: 0.177. The same measure for RRIRQRPPRLPRPRPRPYSWPRP: 0.0415. For RRIRLRPPRLPRPRPRPAKDPRP the value was -0.136; for RRIRERPPRLPRPRPRPHIQPRP, -0.705; for RRIRARPPRLPRPRPRPDPKPRP, 0.268. On to RRIRERPPRLPRPRPRPDDAPRP, for which the “shrunken log2 fold change” value is -0.179. Consider RRIRGRPPRLPRPRPRPDCEPRP, for which the “shrunken log2 fold change” value was found to be 1.44. For RRIRSRPPRLPRPRPRPDQMPRP the value was 0.049; for RRIRYRPPRLPRPRPRPVVYPRP, 0.0874; for RRIRERPPRLPRPRPRPEEYPRP, -0.4. Regarding RRIRHRPPRLPRPRPRPENYPRP, the “shrunken log2 fold change” value was -0.327. For RRIRERPPRLPRPRPRPTEEPRP the value was 0.00212; for RRIRKRPPRLPRPRPRPWTNPRP, -0.0144. The same measure for RRIRARPPRLPRPRPRPIEAPRP: 0.213. The same measure for RRIRRRPPRLPRPRPRPTCQPRP: 0.775; for RRIRFRPPRLPRPRPRPTMYPRP: -0.459.

Turning to RRIRMRPPRLPRPRPRPRWDPRP, the “shrunken log2 fold change” value worked out at 0.793.

As to RRIRIRPPRLPRPRPRPQNPPRP, the “shrunken log2 fold change” value is -0.38. Turning to RRIRRRPPRLPRPRPRPQAMPRP, the “shrunken log2 fold change” value stood at 0.0414. The same measure for RRIRCRPPRLPRPRPRPVMAPRP: -0.354. Take RRIRHRPPRLPRPRPRPMEAPRP: the “shrunken log2 fold change” value was -0.0935. For RRIRKRPPRLPRPRPRPPSIPRP, the “shrunken log2 fold change” value was determined as 0.0697. For RRIRKRPPRLPRPRPRPPSDPRP the value was 0.75; for RRIRTRPPRLPRPRPRPPVYPRP, -0.0771; for RRIRIRPPRLPRPRPRPTRHPRP, 0.0172. The same measure for RRIRFRPPRLPRPRPRPDMGPRP: -0.176; for RRIRKRPPRLPRPRPRPAWKPRP: -0.116.

For RRIRVRPPRLPRPRPRPFGCPRP, the “shrunken log2 fold change” value is -0.19. For RRIRQRPPRLPRPRPRPPSSPRP the value was 0.0251; for RRIRKRPPRLPRPRPRPPAFPRP, 0.309.

RRIRLRPPRLPRPRPRPGTQPRP: the “shrunken log2 fold change” value was -0.0907. For RRIRERPPRLPRPRPRPEEHPRP the value was -0.0183.

RRIRYRPPRLPRPRPRPPWSPRP: the “shrunken log2 fold change” value is -0.372. The same measure for RRIRQRPPRLPRPRPRPAFCPRP: 0.585; for RRIRDRPPRLPRPRPRPAAIPRP: 0.272; for RRIRFRPPRLPRPRPRPTRFPRP: 0.429. The same measure for RRIRCRPPRLPRPRPRPLEKPRP: -0.072.

Regarding RRIRKRPPRLPRPRPRPRFSPRP, the “shrunken log2 fold change” value came out at 0.17.

On to RRIRFRPPRLPRPRPRPWHDPRP, for which the “shrunken log2 fold change” value was 0.0237. Take RRIRVRPPRLPRPRPRPCDNPRP: the “shrunken log2 fold change” value was -0.418. For RRIRLRPPRLPRPRPRPTYNPRP, the “shrunken log2 fold change” value is -0.869. As to RRIRPRPPRLPRPRPRPQTIPRP, the “shrunken log2 fold change” value was -0.0413.

In the case of RRIRSRPPRLPRPRPRPNSMPRP, the “shrunken log2 fold change” value was -0.215. For RRIRFRPPRLPRPRPRPQKTPRP the value was 0.00435; for RRIRQRPPRLPRPRPRPVNFPRP, -0.346.

On to RRIRLRPPRLPRPRPRPIKEPRP, for which the “shrunken log2 fold change” value was -0.0262. For RRIRQRPPRLPRPRPRPSPMPRP the value was 0.0696. The same measure for RRIRKRPPRLPRPRPRPETVPRP: 0.0854. The same measure for RRIRKRPPRLPRPRPRPHNDPRP: 0.00261. For RRIRPRPPRLPRPRPRPTHLPRP, the “shrunken log2 fold change” value was 0.23. For RRIRNRPPRLPRPRPRPKCIPRP the value was -0.223; for RRIRARPPRLPRPRPRPMIIPRP, -0.0301; for RRIRYRPPRLPRPRPRPQTKPRP, -0.168. For RRIRVRPPRLPRPRPRPNPAPRP the value was 0.31. For RRIRSRPPRLPRPRPRPLWSPRP the value was -0.0384.

Consider RRIRDRPPRLPRPRPRPHGWPRP, for which the “shrunken log2 fold change” value turned out to be 0.861. The same measure for RRIRDRPPRLPRPRPRPMPTPRP: -0.0113; for RRIRQRPPRLPRPRPRPKVFPRP: -0.00192; for RRIRNRPPRLPRPRPRPCGWPRP: 0.0822. With RRIRGRPPRLPRPRPRPEYKPRP, the “shrunken log2 fold change” value came to 0.375. For RRIRGRPPRLPRPRPRPPFTPRP the value was 0.462; for RRIRARPPRLPRPRPRPMFEPRP, 0.3; for RRIRFRPPRLPRPRPRPKAWPRP, 0.0254. For RRIRARPPRLPRPRPRPQTTPRP the value was 0.768; for RRIRVRPPRLPRPRPRPRCMPRP, -0.23; for RRIRYRPPRLPRPRPRPEVSPRP, -0.117. The same measure for RRIRHRPPRLPRPRPRPNLRPRP: 0.00562; for RRIRWRPPRLPRPRPRPGDNPRP: 0.106; for RRIRERPPRLPRPRPRPEVGPRP: 0.0848.

In the case of RRIRMRPPRLPRPRPRPGVLPRP, the “shrunken log2 fold change” value was 0.135.

Turning to RRIRTRPPRLPRPRPRPEVAPRP, the “shrunken log2 fold change” value was 0.0197.

Regarding RRIRARPPRLPRPRPRPIHGPRP, the “shrunken log2 fold change” value was -0.208. On to RRIRWRPPRLPRPRPRPSYVPRP, for which the “shrunken log2 fold change” value was -0.651. For RRIRYRPPRLPRPRPRPWDWPRP the value was -0.0724. For RRIRERPPRLPRPRPRPENSPRP the value was -0.0336; for RRIRSRPPRLPRPRPRPHGTPRP, -0.161. On to RRIRPRPPRLPRPRPRPVLYPRP, for which the “shrunken log2 fold change” value is -0.335. For RRIRLRPPRLPRPRPRPEQPPRP the value was 0.437; for RRIRPRPPRLPRPRPRPPPNPRP, 0.743.

These data come from the supplement of paper PMC9112550, “Optimization of the antimicrobial peptide Bac7 by deep mutational scanning” (BMC Biology, 2022).
